The text below walks through data of the supplement of paper PMC10567573.

The chains are these.
B1: SMTNL2 (parent)
chain: QKNFELAFTMAENLANCERLIEVE
B2: PKD2L1 (parent)
chain: SGPEAARAGGWVSGEEFYMLTRRV
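Also: lentivirally expressed fusions sorted by FACS into six bins by GFP to DsRed ratio, PSI derived from sequencing read proportions per bin multiplied by bin number.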

Variants of B1 are the subject of one data set. The experiment in a line: protein stability index of a GFP-peptide fusion (GPS, HEK-293T) (PSI 1-6); higher = more stable. The note with it: c terminus: a fixed tail appended.
For QKNMELAFTMAENLANCERLIEVE, the protein stability index is 2.31.
Still for that read-out and setting: to QKNEELAFTMAENLANCERLIEVE belongs 2.94.
As for QKNTELAFTMAENLANCERLIEVE, the protein stability index worked out at 3.51.
Same read-out and setting: to QKNNELAFTMAENLANCERLIEVE belongs 3.27; to QKNFELAFTMAENLANCERLKEVE, 3.46.
For the variant QKNFELAFTMAENLANCERLAEVE, the protein stability index is 3.25.
Same read-out and setting: the figure for QKNFELAFTMAENLANCERLSEVE is 4.54; for QKNFELAFTMAENLANCERLPEVE it is 4.14.
Same read-out and setting: to QKNFELAFTMAENLANAERLIEVE belongs 2.16; to QKNFELAFTMAENLANHERLIEVE, 3.37.
On the same count and under the same terms, to QKNFELAFTMAENLANNERLIEVE belongs 4.09.
For QKNFELAFTMAENLANVERLIEVE, the protein stability index was 2.02.
For the variant QKNFELAFTMAENLANSERLIEVE, the protein stability index worked out at 2.28.

The next data set covers variants of B2. The description is as above. The note with it: c terminus: a fixed tail appended.
As to SGLEAARAGGWVSGEEFYMLTRRV, the protein stability index stood at 1.91.
Still for that read-out and setting: to SGEEAARAGGWVSGEEFYMLTRRV belongs 2.43.
Same read-out and setting: the figure for SGAEAARAGGWVSGEEFYMLTRRV is 2.38.
Still for that read-out and setting: to SGYEAARAGGWVSGEEFYMLTRRV belongs 1.49.
For the variant SGSEAARAGGWVSGEEFYMLTRRV, the protein stability index is 2.02.
Take SGQEAARAGGWVSGEEFYMLTRRV: the protein stability index is 2.44.
Same read-out and setting: the figure for SGNEAARAGGWVSGEEFYMLTRRV is 2.59.
Same read-out and setting: the figure for SGKEAARAGGWVSGEEFYMLTRRV is 2.37; for SGTEAARAGGWVSGEEFYMLTRRV it is 2.4; for SGIEAARAGGWVSGEEFYMLTRRV it is 2.16.
The same measure, in the same setting: to SGVEAARAGGWVSGEEFYMLTRRV belongs 2.14; to SGGEAARAGGWVSGEEFYMLTRRV, 2.63.
SGCEAARAGGWVSGEEFYMLTRRV: the protein stability index is 2.11.
Still for that read-out and setting: to SGREAARAGGWVSGEEFYMLTRRV belongs 1.78.
As to SGWEAARAGGWVSGEEFYMLTRRV, the protein stability index came out at 1.74.
Same read-out and setting: the figure for SGFEAARAGGWVSGEEFYMLTRRV is 1.83; for SGHEAARAGGWVSGEEFYMLTRRV it is 2.32.
Still for that read-out and setting: to SGMEAARAGGWVSGEEFYMLTRRV belongs 2.2; to SGDEAARAGGWVSGEEFYMLTRRV, 2.04; to SQPEAARAGGWVSGEEFYMLTRRV, 2.64.
The same measure, in the same setting: to SEPEAARAGGWVSGEEFYMLTRRV belongs 3.1.
With SFPEAARAGGWVSGEEFYMLTRRV, the protein stability index worked out at 1.83.
For SHPEAARAGGWVSGEEFYMLTRRV, the protein stability index stood at 2.17.
As to SPPEAARAGGWVSGEEFYMLTRRV, the protein stability index was found to be 2.08.
On the same count and under the same terms, to SCPEAARAGGWVSGEEFYMLTRRV belongs 1.67.
The same measure, in the same setting: the figure for SDPEAARAGGWVSGEEFYMLTRRV is 2.24; for SMPEAARAGGWVSGEEFYMLTRRV it is 3.57.
Same read-out and setting: the figure for SYPEAARAGGWVSGEEFYMLTRRV is 1.72; for SKPEAARAGGWVSGEEFYMLTRRV it is 1.8; for SRPEAARAGGWVSGEEFYMLTRRV it is 2.24.
For SNPEAARAGGWVSGEEFYMLTRRV, the protein stability index is 2.93.
The same measure, in the same setting: to SWPEAARAGGWVSGEEFYMLTRRV belongs 2.91; to STPEAARAGGWVSGEEFYMLTRRV, 2.94; to SVPEAARAGGWVSGEEFYMLTRRV, 2.27.
Same read-out and setting: to SAPEAARAGGWVSGEEFYMLTRRV belongs 2.
Still for that read-out and setting: to SSPEAARAGGWVSGEEFYMLTRRV belongs 2.19.
On to SGPSAARAGGWVSGEEFYMLTRRV, for which the protein stability index amounted to 3.46.
On the same count and under the same terms, to SGPCAARAGGWVSGEEFYMLTRRV belongs 1.81.
Same read-out and setting: the figure for SGPWAARAGGWVSGEEFYMLTRRV is 1.3; for SGPGAARAGGWVSGEEFYMLTRRV it is 2.42.
Same read-out and setting: to SGPHAARAGGWVSGEEFYMLTRRV belongs 2.28.
SGPKAARAGGWVSGEEFYMLTRRV: the protein stability index came to 1.94.
Still for that read-out and setting: the figure for SGPLAARAGGWVSGEEFYMLTRRV is 1.6.
With SGPTAARAGGWVSGEEFYMLTRRV, the protein stability index was 1.78.
Still for that read-out and setting: the figure for SGPRAARAGGWVSGEEFYMLTRRV is 2.44.
Same read-out and setting: the figure for SGPMAARAGGWVSGEEFYMLTRRV is 2.35; for SGPDAARAGGWVSGEEFYMLTRRV it is 2.59.
The same measure, in the same setting: the figure for SGPVAARAGGWVSGEEFYMLTRRV is 1.56.
Turning to SGPYAARAGGWVSGEEFYMLTRRV, the protein stability index came out at 1.92.
On the same count and under the same terms, to SGPQAARAGGWVSGEEFYMLTRRV belongs 1.57; to SGPNAARAGGWVSGEEFYMLTRRV, 2.64.
The same measure, in the same setting: to SGPFAARAGGWVSGEEFYMLTRRV belongs 1.71; to SGPIAARAGGWVSGEEFYMLTRRV, 2.02; to SGPPAARAGGWVSGEEFYMLTRRV, 2.08.
Take NGPEAARAGGWVSGEEFYMLTRRV: the protein stability index was 2.65.
Consider MGPEAARAGGWVSGEEFYMLTRRV, for which the protein stability index was determined as 2.04.
Still for that read-out and setting: to VGPEAARAGGWVSGEEFYMLTRRV belongs 2.67; to PGPEAARAGGWVSGEEFYMLTRRV, 2.35.
The same measure, in the same setting: the figure for YGPEAARAGGWVSGEEFYMLTRRV is 1.46; for LGPEAARAGGWVSGEEFYMLTRRV it is 1.5.
In the case of HGPEAARAGGWVSGEEFYMLTRRV, the protein stability index was determined as 2.53.
Still for that read-out and setting: to WGPEAARAGGWVSGEEFYMLTRRV belongs 2.85.
On the same count and under the same terms, to IGPEAARAGGWVSGEEFYMLTRRV belongs 2.64; to FGPEAARAGGWVSGEEFYMLTRRV, 1.12.
As to QGPEAARAGGWVSGEEFYMLTRRV, the protein stability index is 3.02.
AGPEAARAGGWVSGEEFYMLTRRV: the protein stability index turned out to be 2.81.
Take TGPEAARAGGWVSGEEFYMLTRRV: the protein stability index amounted to 2.68.
Still for that read-out and setting: the figure for KGPEAARAGGWVSGEEFYMLTRRV is 2.75; for DGPEAARAGGWVSGEEFYMLTRRV it is 2.35; for EGPEAARAGGWVSGEEFYMLTRRV it is 2.68.
Same read-out and setting: to SGPEMARAGGWVSGEEFYMLTRRV belongs 2.58.
For the variant SGPEIARAGGWVSGEEFYMLTRRV, the protein stability index stood at 2.33.
As to SGPEHARAGGWVSGEEFYMLTRRV, the protein stability index is 2.03.
Still for that read-out and setting: the figure for SGPECARAGGWVSGEEFYMLTRRV is 1.98.
The same measure, in the same setting: the figure for SGPEDARAGGWVSGEEFYMLTRRV is 2.71.
The same measure, in the same setting: the figure for SGPEGARAGGWVSGEEFYMLTRRV is 3.07.
Consider SGPELARAGGWVSGEEFYMLTRRV, for which the protein stability index was found to be 2.19.
Still for that read-out and setting: to SGPEKARAGGWVSGEEFYMLTRRV belongs 1.96.
Same read-out and setting: the figure for SGPEFARAGGWVSGEEFYMLTRRV is 2.24; for SGPENARAGGWVSGEEFYMLTRRV it is 2.18; for SGPEEARAGGWVSGEEFYMLTRRV it is 2.32.
